Results reported in article PMC9301129.

B1: UNC93B1: N272Q (protein)
parent chain: MEVEPPLYPVAGAAGPQGDEDRHGVPDGPEAPLDELVGAYPNYNEEEEERRYYRRKRLGVVKNVLAASTGVTLTYGVYLGLLQMQLILHYDETYREVKYGNMGLPDIDSKMLMGINVTPIAALLYTPVLIRFFGTKWMMFLAVGIYALFVSTNYWERYYTLVPSAVALGMAIVPLWASMGNYITRMSQKYYEYSHYKEQDEQGPQQRPPRGSHAPYLLVFQAIFYSFFHLSFACAQLPMIYFLNNYLYDLNHTLINVQSCGTKSQGILNGFNKTVLRTLPRSKNLIVVESVLMAVAFLAMLMVLGLCGAAYRPTEEIDLRSVGWGNIFQLPFKHVRDFRLRHLVPFFIYSGFEVLFACTGFALGYGVCSMGLERLAYLLIAYSLGASASSVLGLLGLWLPRSVPLVAGAGLHLLLTLSLFFWAPAPRVLQHSWIFYFVAALWGVGSALNKTGLSTLLGILYEDKERQDFIFTIYHWWQAVAIFVVYLGSSLPMKAKLAVLLVTLVAAAASYLWMEQKLQQGLVPRQPRIPKPQHKVRGYRYLEEDNSDESDMEGEQGQGDCAEDEAPQAGPLGAEPAGPCRKPCPYEQALGGDGPEEQ
B2: UNC93B1: N251Q (protein)
parent chain: B1 parent chain
B3: UNC93B1: N251Q/N272Q (protein)
parent chain: B1 parent chain

Tests used:
Settings in all cases: glycan lost; control: UNC93B1(WT)
[1] = streptavidin pull-down, anti-myc blot, KO iBMDM
[2] = cycloheximide chase, anti-myc blot, full-length and cleaved TLR9
[3] = blot of TLR9 in isolated phagosomes
[4] = TLR9 co-IP after CpG DNA, anti-MyD88 blot
[5] = confocal microscopy, colocalisation with CD63, KO BMDC
[6] = cycloheximide chase, anti-GFP blot, UNC93B1 KO iBMDM
[7] = confocal microscopy, TLR9-GFP with CD63-cherry, KO BMDC

Row | Protein | other: CpG DNA binding by client TLR9 [1] | other: stability and processing of client TLR9 [2] | other: TLR9 trafficking to phagosomes [3] | other: MyD88 recruitment to TLR9 [4] | localisation_or_trafficking [5] | degradation_or_half_life [6] | other: endosomal localisation of client TLR9 [7]
1 | B1 | no change | no change | no change | decreases | no change | no change | no change
2 | B2 | no change | no change |  | no change | no change | no change | no change
3 | B3 |  |  |  | decreases |  |  | 
